Legend:
[1] = target: mRFP1-sspB-Nano (mRFP1 fused to the sspB-Nano protein, his-MBP removed by TEV protease); experiment: fluorescence microscopy of RFP-sspB-Nano recruitment to synthetic cells with membrane-bound protein; activation by coelenterazine (bioluminescence)
[2] = target: mRFP1-sspB-Nano (mRFP1 fused to the sspB-Nano protein, his-MBP removed by TEV protease); experiment: fluorescence microscopy of RFP-sspB-Nano recruitment to synthetic cells with membrane-bound protein; activation by blue laser light
[3] = target: mRFP1-sspB-Nano (mRFP1 fused to the sspB-Nano protein, his-MBP removed by TEV protease); experiment: fluorescence microscopy of RFP-sspB-Nano recruitment to synthetic cells with membrane-bound protein; activation by 488 nm laser

fold increase of normalized mRFP1 intensity at the membrane against the dark conditions [1]	fold difference of mRFP1 intensity between dark and light conditions [2]	fold increase of mRFP1 signal at the membrane against the dark conditions [3]	Substance
2.5 fold	> 8 fold		his-Gluc-iLID (fusion of N-terminal Gaussia luciferase and C-terminal iLID with a linker peptide and an N-terminal his-tag)
		1.5 fold	his-iLID (his-tagged improved light-induced dimer)
